The test system of the data set is SmpB (small protein B) (Aeromonas veronii). In words: MST. Conditions: […], pH 7.4), temperature not stated, binding buffer not stated.

One may read the Kd as the free concentration of one partner at which half of the binding sites on the other are occupied at equilibrium, for simple one-to-one binding. “PompA C52AT (native ompA promoter fragment)”: the Kd was found to be 0.93 µM.
As for PompA T52GC (CAT at +52 to TGC), the figure is 126 µM.
